Measurements: US20130247232A1

Experiments:
[1] = biological target: MUC5AC (NPC-1 antigen) expressed by CFPAC-1 human pancreatic tumor cells (human) (UniProt P98088); test: flow cytometry on CFPAC-1 cells
[2] = biological target: MUC5AC (NPC-1 antigen) expressed by SW480 human colorectal tumor cells (human) (UniProt P98088); test: FACS, 2 µg/ml isotype control antibody-FITC on SW480 cells
[3] = biological target: MUC5AC (NPC-1 antigen) expressed by Colo-205 human colorectal tumor cells (human) (UniProt P98088); test: flow cytometry on Colo-205 cells
[4] = biological target: MUC5AC (NPC-1 antigen) expressed by LS174T human colorectal tumor cells (human) (UniProt P98088); test: FACS, 2 µg/ml isotype control antibody-FITC on LS174 cells
[5] = biological target: MUC5AC (NPC-1 antigen) expressed by CFPAC-1 human pancreatic tumor cells (human) (UniProt P98088); test: FACS, 2 µg/ml isotype control antibody-FITC on CFPAC cells
[6] = biological target: MUC5AC (NPC-1 antigen) expressed by LS174T human colorectal tumor cells (human) (UniProt P98088); test: flow cytometry on LS174T cells
[7] = biological target: MUC5AC (NPC-1 antigen) expressed by Colo-205 human colorectal tumor cells (human) (UniProt P98088); test: FACS, 2 µg/ml isotype control antibody-FITC on Colo-205 cells
[8] = biological target: MUC5AC (NPC-1 antigen) expressed by SW480 human colorectal tumor cells (human) (UniProt P98088); test: flow cytometry on SW480 cells

Chain of MUC5AC (NPC-1 antigen) expressed by Colo-205 human colorectal tumor cells (human) (P98088 other isoform, or with tags, fused parts or gaps limits assumed): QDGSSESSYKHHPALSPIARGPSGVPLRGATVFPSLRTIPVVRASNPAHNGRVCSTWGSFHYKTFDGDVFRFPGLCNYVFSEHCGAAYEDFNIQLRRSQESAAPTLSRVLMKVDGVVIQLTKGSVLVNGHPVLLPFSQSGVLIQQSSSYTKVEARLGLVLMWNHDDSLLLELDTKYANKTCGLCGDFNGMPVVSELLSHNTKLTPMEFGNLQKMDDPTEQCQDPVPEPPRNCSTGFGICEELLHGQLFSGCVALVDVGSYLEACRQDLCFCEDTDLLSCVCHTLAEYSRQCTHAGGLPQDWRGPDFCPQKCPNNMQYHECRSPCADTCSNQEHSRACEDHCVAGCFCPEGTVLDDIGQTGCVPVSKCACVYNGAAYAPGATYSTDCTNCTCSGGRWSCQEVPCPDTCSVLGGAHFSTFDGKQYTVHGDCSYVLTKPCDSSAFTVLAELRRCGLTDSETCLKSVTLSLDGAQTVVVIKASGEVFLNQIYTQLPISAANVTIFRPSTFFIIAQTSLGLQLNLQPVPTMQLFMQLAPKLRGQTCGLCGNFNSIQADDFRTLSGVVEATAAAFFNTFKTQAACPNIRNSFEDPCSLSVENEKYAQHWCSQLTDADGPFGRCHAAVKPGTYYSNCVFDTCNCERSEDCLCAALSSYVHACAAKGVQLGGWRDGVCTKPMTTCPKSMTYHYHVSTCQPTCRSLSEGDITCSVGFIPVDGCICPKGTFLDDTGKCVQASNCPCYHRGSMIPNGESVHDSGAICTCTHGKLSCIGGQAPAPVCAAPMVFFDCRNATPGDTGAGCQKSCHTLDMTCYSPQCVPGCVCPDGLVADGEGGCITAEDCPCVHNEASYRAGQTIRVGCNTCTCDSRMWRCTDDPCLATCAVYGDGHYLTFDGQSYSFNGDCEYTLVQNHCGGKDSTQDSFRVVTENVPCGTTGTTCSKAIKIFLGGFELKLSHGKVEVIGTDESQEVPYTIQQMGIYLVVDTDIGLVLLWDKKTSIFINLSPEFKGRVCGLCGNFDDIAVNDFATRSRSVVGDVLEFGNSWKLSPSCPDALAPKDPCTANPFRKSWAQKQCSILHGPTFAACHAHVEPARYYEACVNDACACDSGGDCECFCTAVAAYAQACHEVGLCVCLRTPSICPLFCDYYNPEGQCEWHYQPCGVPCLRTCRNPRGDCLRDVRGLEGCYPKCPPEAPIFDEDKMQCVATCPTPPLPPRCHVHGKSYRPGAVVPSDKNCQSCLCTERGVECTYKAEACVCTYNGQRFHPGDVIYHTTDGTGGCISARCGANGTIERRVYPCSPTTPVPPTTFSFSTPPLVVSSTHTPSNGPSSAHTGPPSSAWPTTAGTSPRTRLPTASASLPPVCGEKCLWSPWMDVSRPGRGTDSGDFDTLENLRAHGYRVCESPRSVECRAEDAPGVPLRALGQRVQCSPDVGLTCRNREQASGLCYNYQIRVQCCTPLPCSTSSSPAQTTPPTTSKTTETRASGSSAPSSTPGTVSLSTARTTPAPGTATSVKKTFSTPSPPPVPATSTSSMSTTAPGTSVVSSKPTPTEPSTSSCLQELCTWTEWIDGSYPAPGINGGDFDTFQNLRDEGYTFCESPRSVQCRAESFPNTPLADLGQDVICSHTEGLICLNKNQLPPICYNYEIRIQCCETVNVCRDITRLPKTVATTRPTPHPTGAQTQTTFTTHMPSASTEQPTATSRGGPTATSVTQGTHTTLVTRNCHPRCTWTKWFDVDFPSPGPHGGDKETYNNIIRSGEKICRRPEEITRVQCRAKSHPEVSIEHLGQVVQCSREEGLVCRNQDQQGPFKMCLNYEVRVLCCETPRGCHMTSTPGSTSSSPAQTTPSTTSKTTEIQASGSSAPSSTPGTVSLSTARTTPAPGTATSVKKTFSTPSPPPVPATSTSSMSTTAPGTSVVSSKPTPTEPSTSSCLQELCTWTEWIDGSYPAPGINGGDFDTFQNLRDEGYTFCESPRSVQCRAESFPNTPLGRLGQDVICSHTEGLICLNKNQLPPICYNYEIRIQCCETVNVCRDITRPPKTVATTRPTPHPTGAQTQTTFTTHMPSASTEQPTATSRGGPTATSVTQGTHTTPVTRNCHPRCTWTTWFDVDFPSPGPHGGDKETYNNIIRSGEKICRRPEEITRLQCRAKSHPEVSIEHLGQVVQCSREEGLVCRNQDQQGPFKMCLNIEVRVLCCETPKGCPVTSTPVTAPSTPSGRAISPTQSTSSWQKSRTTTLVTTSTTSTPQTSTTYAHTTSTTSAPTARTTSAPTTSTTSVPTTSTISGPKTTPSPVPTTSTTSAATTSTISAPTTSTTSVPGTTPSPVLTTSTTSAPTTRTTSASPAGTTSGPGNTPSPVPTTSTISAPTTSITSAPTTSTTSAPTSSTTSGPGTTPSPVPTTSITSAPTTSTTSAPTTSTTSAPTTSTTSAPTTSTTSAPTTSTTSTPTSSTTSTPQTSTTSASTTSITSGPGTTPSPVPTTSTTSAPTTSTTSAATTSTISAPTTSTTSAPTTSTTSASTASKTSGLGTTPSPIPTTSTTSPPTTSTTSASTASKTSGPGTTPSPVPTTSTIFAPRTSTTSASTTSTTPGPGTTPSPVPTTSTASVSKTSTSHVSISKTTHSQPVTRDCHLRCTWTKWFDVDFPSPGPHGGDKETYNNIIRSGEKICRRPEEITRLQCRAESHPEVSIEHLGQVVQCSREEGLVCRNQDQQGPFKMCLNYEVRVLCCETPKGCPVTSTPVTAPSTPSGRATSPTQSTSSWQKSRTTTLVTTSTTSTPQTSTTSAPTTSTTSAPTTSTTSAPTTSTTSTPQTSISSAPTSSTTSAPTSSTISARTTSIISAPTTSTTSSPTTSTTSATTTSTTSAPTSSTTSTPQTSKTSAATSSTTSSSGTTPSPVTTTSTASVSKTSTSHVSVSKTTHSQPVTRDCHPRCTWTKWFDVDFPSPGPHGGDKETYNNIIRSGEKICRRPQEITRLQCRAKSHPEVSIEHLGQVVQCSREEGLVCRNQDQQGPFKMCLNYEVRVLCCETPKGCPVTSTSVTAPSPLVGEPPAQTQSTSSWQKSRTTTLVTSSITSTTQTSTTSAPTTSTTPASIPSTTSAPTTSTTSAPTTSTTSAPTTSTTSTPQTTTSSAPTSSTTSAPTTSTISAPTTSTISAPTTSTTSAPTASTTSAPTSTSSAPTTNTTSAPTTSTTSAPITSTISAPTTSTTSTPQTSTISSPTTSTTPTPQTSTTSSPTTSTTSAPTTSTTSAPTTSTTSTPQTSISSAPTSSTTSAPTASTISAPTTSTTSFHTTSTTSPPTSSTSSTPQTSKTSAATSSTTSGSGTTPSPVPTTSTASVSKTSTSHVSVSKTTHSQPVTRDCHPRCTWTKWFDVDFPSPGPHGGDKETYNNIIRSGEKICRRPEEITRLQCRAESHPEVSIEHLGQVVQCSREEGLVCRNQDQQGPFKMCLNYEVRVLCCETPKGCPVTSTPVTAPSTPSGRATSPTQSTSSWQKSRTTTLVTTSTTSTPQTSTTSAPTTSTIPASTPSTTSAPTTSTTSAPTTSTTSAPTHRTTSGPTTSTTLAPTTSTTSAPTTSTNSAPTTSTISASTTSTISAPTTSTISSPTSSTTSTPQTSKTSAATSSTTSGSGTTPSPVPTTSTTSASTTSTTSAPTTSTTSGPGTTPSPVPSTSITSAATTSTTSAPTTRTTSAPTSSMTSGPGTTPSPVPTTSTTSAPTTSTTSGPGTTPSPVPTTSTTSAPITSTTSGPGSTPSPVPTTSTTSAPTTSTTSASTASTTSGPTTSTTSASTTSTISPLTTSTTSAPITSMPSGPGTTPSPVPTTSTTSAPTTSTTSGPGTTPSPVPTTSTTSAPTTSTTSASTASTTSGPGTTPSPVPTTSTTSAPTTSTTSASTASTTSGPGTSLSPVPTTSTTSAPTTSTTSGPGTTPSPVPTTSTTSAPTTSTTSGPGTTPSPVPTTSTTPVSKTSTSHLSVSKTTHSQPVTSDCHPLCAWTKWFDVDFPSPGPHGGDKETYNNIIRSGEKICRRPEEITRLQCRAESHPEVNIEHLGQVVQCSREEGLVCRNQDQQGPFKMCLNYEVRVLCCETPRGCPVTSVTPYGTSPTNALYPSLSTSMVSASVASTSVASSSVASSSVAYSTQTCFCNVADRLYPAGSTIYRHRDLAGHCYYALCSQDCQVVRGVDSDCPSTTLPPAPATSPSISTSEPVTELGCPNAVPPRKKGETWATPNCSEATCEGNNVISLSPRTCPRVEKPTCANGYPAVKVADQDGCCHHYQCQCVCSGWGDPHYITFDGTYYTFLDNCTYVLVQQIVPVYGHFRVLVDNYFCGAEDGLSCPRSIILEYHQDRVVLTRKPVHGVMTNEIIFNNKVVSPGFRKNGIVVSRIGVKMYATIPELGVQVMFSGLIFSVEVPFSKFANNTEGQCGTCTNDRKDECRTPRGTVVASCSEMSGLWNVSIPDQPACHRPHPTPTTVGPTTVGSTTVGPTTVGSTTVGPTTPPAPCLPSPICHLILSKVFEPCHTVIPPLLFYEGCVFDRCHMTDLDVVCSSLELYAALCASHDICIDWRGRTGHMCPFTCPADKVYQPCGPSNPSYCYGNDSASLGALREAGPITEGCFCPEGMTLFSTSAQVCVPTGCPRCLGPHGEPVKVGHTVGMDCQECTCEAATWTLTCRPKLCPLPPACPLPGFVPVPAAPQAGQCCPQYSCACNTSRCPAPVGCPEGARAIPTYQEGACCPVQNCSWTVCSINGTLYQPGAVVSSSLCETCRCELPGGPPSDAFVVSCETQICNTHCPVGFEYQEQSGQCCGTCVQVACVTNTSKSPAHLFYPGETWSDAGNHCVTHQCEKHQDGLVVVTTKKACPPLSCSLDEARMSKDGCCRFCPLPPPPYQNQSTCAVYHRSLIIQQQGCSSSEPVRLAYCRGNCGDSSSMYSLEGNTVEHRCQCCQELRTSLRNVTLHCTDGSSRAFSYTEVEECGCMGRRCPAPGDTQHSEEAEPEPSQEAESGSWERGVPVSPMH
Chain of MUC5AC (NPC-1 antigen) expressed by SW480 human colorectal tumor cells (human) (P98088 other isoform, or with tags, fused parts or gaps limits assumed): as above
Chain of MUC5AC (NPC-1 antigen) expressed by LS174T human colorectal tumor cells (human) (P98088 other isoform, or with tags, fused parts or gaps limits assumed, change not shown): as the sequence (P98088 other isoform, or with tags, fused parts or gaps limits assumed) above
Chain of MUC5AC (NPC-1 antigen) expressed by CFPAC-1 human pancreatic tumor cells (human) (P98088 other isoform, or with tags, fused parts or gaps limits assumed): as above

mfi [1]: 25 mfi
Percent positive [2]: 3.38%
mfi [3]: 34 mfi
Percent positive [4]: 3.85%
Percent positive [5]: 1.79%
mfi [6]: 35 mfi
Percent positive [7]: 2.33%
mfi [8]: 56 mfi
Substance: Isotype control antibody
